Assay: melting temperature; melt of duplexes
Conditions: sodium 0.0675 M; strand 1 µM

Substance	Tm
CGACGTGCCTTATGTGCTG+CAGCACATTAGGCACGTCG ((((((((((.((((((((+)))))))).))))))))))	58 °C
CGACGTGCCCGATGTGCTG+CAGCACATCTAGCACGTCG ((((((((..(((((((((+)))))))))..))))))))	52.9 °C
CGACGTGCTTGATGTGCTG+CAGCACATGAAGCACGTCG ((((((((((.((((((((+)))))))).))))))))))	56.6 °C
CGACGTGCGAGATGTGCTG+CAGCACATATAGCACGTCG ((((((((.(.((((((((+)))))))).).))))))))	54.6 °C
CGACGTGCGGAATGTGCTG+CAGCACATTTGGCACGTCG ((((((((..(((((((((+)))))))))..))))))))	54.6 °C
CGACGTGCTCGATGTGCTG+CAGCACATTAAGCACGTCG (((((((((..((((((((+))))))))..)))))))))	51.9 °C
CGACGTGCCACATGTGCTG+CAGCACATACCGCACGTCG ((((((((...((((((((+))))))))...))))))))	46.7 °C
CGACGTGCATGATGTGCTG+CAGCACATGTTGCACGTCG (((((((((..((((((((+))))))))..)))))))))	52.2 °C
CGACGTGCTGCATGTGCTG+CAGCACATCCAGCACGTCG ((((((((((.((((((((+)))))))).))))))))))	55.9 °C
CGACGTGCCGTATGTGCTG+CAGCACATTAAGCACGTCG ((((((((...((((((((+))))))))...))))))))	49.1 °C
CGACGTGCCGGATGTGCTG+CAGCACATAAAGCACGTCG ((((((((...((((((((+))))))))...))))))))	50.2 °C
CGACGTGCGTCATGTGCTG+CAGCACATTCAGCACGTCG ((((((((...((((((((+))))))))...))))))))	51.3 °C
CGACGTGCGGGATGTGCTG+CAGCACATAGGGCACGTCG ((((((((...((((((((+))))))))...))))))))	50.1 °C
CGACGTGCGATATGTGCTG+CAGCACATATCGCACGTCG (((((((((((((((((((+)))))))))))))))))))	64.1 °C
CGACGTGCGAGATGTGCTG+CAGCACATTTGGCACGTCG ((((((((.(.((((((((+)))))))).).))))))))	52.5 °C
CGACGTGCGAAATGTGCTG+CAGCACATAGCGCACGTCG (((((((((..((((((((+))))))))..)))))))))	55.4 °C
CGACGTGCCGGATGTGCTG+CAGCACATTCCGCACGTCG ((((((((.(.((((((((+)))))))).).))))))))	54 °C
CGACGTGCAGAATGTGCTG+CAGCACATGACGCACGTCG ((((((((...((((((((+))))))))...))))))))	53.1 °C
CGACGTGCTACATGTGCTG+CAGCACATCGAGCACGTCG (((((((((..((((((((+))))))))..)))))))))	51.6 °C
CGACGTGCTCCATGTGCTG+CAGCACATCAGGCACGTCG ((((((((...((((((((+))))))))...))))))))	48.6 °C
CGACGTGCTCTATGTGCTG+CAGCACATTCCGCACGTCG ((((((((...((((((((+))))))))...))))))))	46.7 °C
CGACGTGCCCAATGTGCTG+CAGCACATGCTGCACGTCG ((((((((...((((((((+))))))))...))))))))	47.8 °C
CGACGTGCAAGATGTGCTG+CAGCACATAGCGCACGTCG ((((((((...((((((((+))))))))...))))))))	49.8 °C
CGACGTGCCCCATGTGCTG+CAGCACATCCGGCACGTCG (((((((((..((((((((+))))))))..)))))))))	51.4 °C
CGACGTGCCCGATGTGCTG+CAGCACATTAAGCACGTCG ((((((((...((((((((+))))))))...))))))))	49.5 °C
CGACGTGCGCCATGTGCTG+CAGCACATTAAGCACGTCG ((((((((...((((((((+))))))))...))))))))	52.1 °C

Substance	Tm
CGACGTGCGCCATGTGCTG+CAGCACATTCCGCACGTCG (((((((((..((((((((+))))))))..)))))))))	50.9 °C
CGACGTGCGCAATGTGCTG+CAGCACATTCAGCACGTCG ((((((((..(((((((((+)))))))))..))))))))	53.1 °C
CGACGTGCTTAATGTGCTG+CAGCACATGAAGCACGTCG ((((((((((.((((((((+)))))))).))))))))))	57.4 °C
CGACGTGCAGCATGTGCTG+CAGCACATTCCGCACGTCG ((((((((.(.((((((((+)))))))).).))))))))	46.4 °C
CGACGTGCGTAATGTGCTG+CAGCACATCTAGCACGTCG ((((((((...((((((((+))))))))...))))))))	54.7 °C
CGACGTGCTTCATGTGCTG+CAGCACATTCAGCACGTCG (((((((((..((((((((+))))))))..)))))))))	50.7 °C
CGACGTGCTGTATGTGCTG+CAGCACATCTCGCACGTCG ((((((((...((((((((+))))))))...))))))))	48.9 °C
CGACGTGCACAATGTGCTG+CAGCACATGCGGCACGTCG ((((((((...((((((((+))))))))...))))))))	46.6 °C
CGACGTGCAGCATGTGCTG+CAGCACATCGCGCACGTCG ((((((((...((((((((+))))))))...))))))))	51.6 °C
CGACGTGCGTAATGTGCTG+CAGCACATATAGCACGTCG ((((((((...((((((((+))))))))...))))))))	54.5 °C
CGACGTGCCGCATGTGCTG+CAGCACATGTGGCACGTCG (((((((((.(((((((((+))))))))).)))))))))	62.9 °C
CGACGTGCGTGATGTGCTG+CAGCACATTATGCACGTCG ((((((((.(.((((((((+)))))))).).))))))))	54.5 °C
CGACGTGCCGTATGTGCTG+CAGCACATCTTGCACGTCG ((((((((...((((((((+))))))))...))))))))	48.5 °C
CGACGTGCGGCATGTGCTG+CAGCACATTTAGCACGTCG ((((((((...((((((((+))))))))...))))))))	52 °C
CGACGTGCGGAATGTGCTG+CAGCACATTACGCACGTCG (((((((((.(((((((((+))))))))).)))))))))	62 °C
CGACGTGCAACATGTGCTG+CAGCACATTAGGCACGTCG ((((((((...((((((((+))))))))...))))))))	48.9 °C
CGACGTGCTTTATGTGCTG+CAGCACATTCAGCACGTCG (((((((((..((((((((+))))))))..)))))))))	50.5 °C
CGACGTGCCCAATGTGCTG+CAGCACATGGGGCACGTCG ((((((((((.((((((((+)))))))).))))))))))	61.3 °C
CGACGTGCACGATGTGCTG+CAGCACATGAGGCACGTCG ((((((((...((((((((+))))))))...))))))))	48.4 °C
CGACGTGCCGCATGTGCTG+CAGCACATTGAGCACGTCG ((((((((...((((((((+))))))))...))))))))	49.5 °C
CGACGTGCTCCATGTGCTG+CAGCACATGATGCACGTCG ((((((((..(((((((((+)))))))))..))))))))	53.7 °C
CGACGTGCATTATGTGCTG+CAGCACATCAAGCACGTCG ((((((((.(.((((((((+)))))))).).))))))))	48.1 °C
CGACGTGCGCGATGTGCTG+CAGCACATCGCGCACGTCG (((((((((((((((((((+)))))))))))))))))))	69.3 °C
CGACGTGCAGAATGTGCTG+CAGCACATCGAGCACGTCG ((((((((...((((((((+))))))))...))))))))	50.3 °C
CGACGTGCTGAATGTGCTG+CAGCACATACCGCACGTCG ((((((((.(.((((((((+)))))))).).))))))))	51.3 °C
CGACGTGCAATATGTGCTG+CAGCACATTATGCACGTCG (((((((((..((((((((+))))))))..)))))))))	52.1 °C

From the array DNA melting data of Ke et al.
